Experimental data as given in US20110300138A1 (published 2011).
Each block holds one molecule with its values, some of them ahead of it.

Tests used:
[1] = biological target: TSH receptor (full length human TSHR) (human) (UniProt P16473); experiment: competition ELISA: inhibition of M22 Fab-peroxidase (competitor) binding to TSHR coated wells; test sample at 10 µg/mL diluted in assay buffer
[2] = biological target: TSHR (full length) coated on tubes (human) (UniProt P16473); experiment: inhibition of 125I-K1-18 Fab (competitor) binding to TSHR coated tubes; test sample 0.01 µg/mL in assay buffer
[3] = biological target: TSH receptor (full length human TSHR) (human) (UniProt P16473); experiment: competition ELISA: inhibition of M22 Fab-peroxidase (competitor) binding to TSHR coated wells; test sample at 100 µg/mL diluted in HBD serum pool
[4] = biological target: TSH receptor (full length human TSHR) coated on tubes (human) (UniProt P16473); experiment: 125I-TSH binding inhibition, TSHR coated tubes; 10 ng/mL, in assay buffer
[5] = biological target: TSHR with Phe134 mutated to Ala, expressed in CHO cells (human) (UniProt P16473); experiment: cell-based or functional assay
[6] = biological target: wild type TSHR expressed in CHO cells (human) (UniProt P16473); experiment: cell-based or functional assay
[7] = biological target: human thyroid stimulating hormone receptor (TSHR), full length (human) (UniProt P16473); experiment: 125I-K1-70 Fab (competitor) binding to TSHR coated tubes; negative control MAb 1 µg/mL in HBD serum
[8] = biological target: human thyroid stimulating hormone receptor (TSHR), full length (human) (UniProt P16473); experiment: 125I-K1-70 Fab (competitor) binding to TSHR coated tubes; negative control MAb 0.1 µg/mL in HBD serum
[9] = biological target: thyroid stimulating hormone receptor (TSHR), full length human TSHR (human) (UniProt P16473); experiment: TSH-biotin competition ELISA, TSHR coated wells; negative control, 0.1 µg/mL in HBD serum
[10] = biological target: TSH receptor (full length human TSHR) (human) (UniProt P16473); experiment: competition ELISA: inhibition of M22 Fab-peroxidase (competitor) binding to TSHR coated wells; negative control at 10 µg/mL diluted in HBD serum pool
[11] = biological target: TSH receptor (full length human TSHR) (human) (UniProt P16473); experiment: competition ELISA: inhibition of M22 Fab-peroxidase (competitor) binding to TSHR coated wells; negative control at 1 µg/mL diluted in HBD serum pool
[12] = biological target: thyroid stimulating hormone receptor (TSHR), full length human TSHR (human) (UniProt P16473); experiment: TSH-biotin competition ELISA, TSHR coated wells; negative control, 0.1 µg/mL in assay buffer
[13] = biological target: TSHR (full length) coated on tubes (human) (UniProt P16473); experiment: inhibition of 125I-K1-18 Fab (competitor) binding to TSHR coated tubes; negative control 0.01 µg/mL in assay buffer
[14] = biological target: TSH receptor (TSHR), full length human, coated on tubes (human) (UniProt P16473); experiment: inhibition of 125I-K1-18 IgG binding to TSHR coated tubes; competitor 125I-K1-18 IgG; negative control sample at 10 µg/mL in HBD serum; mean of duplicate
[15] = biological target: thyroid stimulating hormone receptor (TSHR), full length human TSHR (human) (UniProt P16473); experiment: TSH-biotin competition ELISA, TSHR coated wells; negative control, 1 µg/mL in HBD serum
[16] = biological target: TSH receptor (TSHR) coated on tubes (human) (UniProt P16473); experiment: inhibition of 125I-K1-70 IgG binding to TSHR coated tubes; negative control 0.001 µg/mL in assay buffer
[17] = biological target: TSHR (thyroid stimulating hormone receptor), full length human (human) (UniProt P16473); experiment: negative control; competitor ^125I-K1-70 IgG, TSHR coated tubes; 100 µg/mL in assay buffer
[18] = biological target: TSH receptor (TSHR), full length human, coated on tubes (human) (UniProt P16473); experiment: inhibition of 125I-TSH binding to TSHR coated tubes; 1 µg/mL, diluted in assay buffer
[19] = biological target: thyroid stimulating hormone receptor (full length human TSHR) (human) (UniProt P16473); experiment: ELISA: inhibition of M22 Fab-peroxidase (competitor) binding to TSHR coated wells; 10 µg/mL, diluted in assay buffer
[20] = biological target: TSH receptor (TSHR) coated on tubes (human) (UniProt P16473); experiment: inhibition of 125I-K1-70 IgG binding to TSHR coated tubes; sample 0.1 µg/mL in assay buffer
[21] = biological target: TSH receptor (TSHR) coated on tubes (human) (UniProt P16473); experiment: inhibition of 125I-K1-70 IgG binding to TSHR coated tubes; sample 0.1 µg/mL in HBD serum pool
[22] = biological target: TSH receptor (TSHR) coated on tubes (human) (UniProt P16473); experiment: inhibition of 125I-K1-70 IgG binding to TSHR coated tubes; sample 0.01 µg/mL in assay buffer
[23] = biological target: human thyroid stimulating hormone receptor (TSHR), full length (human) (UniProt P16473); experiment: 125I-K1-18 Fab competition, TSHR coated tubes; 10 µg/mL in assay buffer
[24] = biological target: TSH receptor (TSHR) coated on tubes (human) (UniProt P16473); experiment: inhibition of 125I-K1-70 IgG binding to TSHR coated tubes; sample 100 µg/mL in HBD serum pool
[25] = biological target: TSH receptor (TSHR), full length human, coated on tubes (human) (UniProt P16473); experiment: inhibition of 125I-TSH binding to TSHR coated tubes; 0.001 µg/mL, diluted in HBD serum pool
[26] = biological target: human TSH receptor (full length) coated on ELISA plate wells (human) (UniProt P16473); experiment: TSH-biotin binding inhibition ELISA, TSHR coated wells; 0.01 µg/mL in HBD serum pool
[27] = biological target: TSH receptor (TSHR), full length human, coated on tubes (human) (UniProt P16473); experiment: inhibition of 125I-TSH binding to TSHR coated tubes; 0.001 µg/mL, diluted in assay buffer

- Inhibition of binding (%) [1]: 64.2%
- Inhibition of binding (%) [2]: 7.9%
- Inhibition of binding (%) [3]: 65.9%
Molecule: 9D33 IgG (antibody)

- Inhibition of binding (%) [4]: 26.4%
Molecule: M22 IgG (antibody)

- % inhibition of TSH stimulation; TSH (2) [5]: 9%
- Cyclic AMP produced; TSH 3 ng/mL [5]: 111 pmol/mL
- Cyclic AMP produced; TSH (2) [5]: 102 pmol/mL
- Mutated/wild type (%) of cyclic AMP produced; TSH 3 ng/mL [5]: 103%
- Mutated/wild type (%) of cyclic AMP produced; TSH (2) [5]: 71%
- Cyclic AMP produced; TSH 3 ng/mL [6]: 108 pmol/mL
- Cyclic AMP produced; TSH (2) [6]: 142 pmol/mL
Molecule: TSH (ligand)

- Inhibition of binding (%) [7]: -7.8%
- Inhibition of binding (%) [8]: -8.7%
- Inhibition of binding (%) [9]: -1.2%
- Inhibition of binding (%) [10]: 4.9%
- Inhibition of binding (%) [11]: 9.7%
- Inhibition of binding (%) [12]: -7.8%
- Inhibition of binding (%) [13]: 0%
- Inhibition of binding (%) [14]: -0.1%
- Inhibition of binding (%) [15]: -3.5%
- Inhibition of binding (%) [16]: -1.5%
- Inhibition of binding (%) [17]: 1.3%
Molecule: 5B3 IgG (antibody)

- Inhibition of binding (%) [18]: 38.7%
- Inhibition of binding (%) [19]: 13.2%
- Inhibition of binding (%) [20]: 24.6%
- Inhibition of binding (%) [21]: 4.4%
- Inhibition of binding (%) [22]: 4.5%
- Inhibition of binding (%) [23]: 63.8%
- Inhibition of binding (%) [24]: 68.5%
- Inhibition of binding (%) [25]: -8%
- % inhibition of TSH-biotin binding [26]: 7.5%
- Inhibition of binding (%) [27]: -11.2%
B1: 5C9 IgG (antibody, from another filing, V domains shown)
VH: EVQLVESGGGLIQPGGSLRLSCAASGFTVSSNYMSWVRQAPGKGLEWVSVTYSGGSTSYADSVKGRFTISRDNSKNTLYLQMNSLRAEDTAVYYCARGGRYCSSISCYARSGCDYWGQGTLVTVSS
VL: AIQMTQSPSSLSASVGDRVTITCRASQSISNYLNWYQQKPGKAPKLLIYAASSLQSGVPSRFSGSGSGTDFTLTISSLQPEDFATYYCQQSYSSPSTTFGQGTKLEIK
